From PMC2883070 (Molecular Microbiology, 2010)

B1: CheY-His (natural protein, E. coli W3110)
chain: ADKELKFLVVDDFSTMRRIVRNLLKELGFNNVEEAEDGVDALNKLQAGGYGFVISDWNMPNMDGLELLKTIRADGAMSALPVLMVTAEAKKENIIAAAQAGASGYVVKPFTAATLEEKLNKIFEKLGM
B2: AcCheY-His (natural protein, E. coli W3110)
chain: B1 chain
modifications: acetyl-lysine at 91 and 109 (found by LC-MS/MS)

Molecular target: T1, His-FliM (E. coli W3110, UniProt P06974 1-334)
T1 sequence (looked up): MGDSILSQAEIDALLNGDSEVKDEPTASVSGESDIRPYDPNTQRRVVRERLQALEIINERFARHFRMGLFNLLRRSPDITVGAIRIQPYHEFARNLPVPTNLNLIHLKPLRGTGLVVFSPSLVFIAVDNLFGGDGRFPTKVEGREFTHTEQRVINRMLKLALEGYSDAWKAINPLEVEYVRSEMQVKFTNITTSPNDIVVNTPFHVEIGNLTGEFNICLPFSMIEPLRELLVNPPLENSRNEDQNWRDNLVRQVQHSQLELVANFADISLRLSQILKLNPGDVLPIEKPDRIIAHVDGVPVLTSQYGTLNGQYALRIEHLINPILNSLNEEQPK
Assay: SPR

| Binder | Kd |
| --- | --- |
| B1 | 1.63 µM |
| B2 | 9.4 µM |
